Patent US20260070987A1

Each binder was assayed against equine FcRn (large alpha subunit p51) / equine beta-2-microglobulin complex, biotinylated (equine) (UniProt P30441) (assay: SPR (Biacore), pH 6).
Sequence of UniProt P30441 (P30441 21-118, one chain of several): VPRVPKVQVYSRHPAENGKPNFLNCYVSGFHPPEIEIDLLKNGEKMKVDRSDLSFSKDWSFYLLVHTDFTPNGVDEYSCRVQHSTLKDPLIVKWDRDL

| Binder | Kd |
| --- | --- |
| equine IgG1 WT (antibody, part only; not given: Variable domains, not shown: another chain or arm of the molecule) constant: ASTTAPKVFALAPGCGTTSDSTVALGCLVSGYFPEPVKVSWNSGSLTSGVHTFPSVLQSSGFYSLSSMVTVPASTWTSETYICNVVHAASNFKVDKRIEPIPDNHQKVCDMSKCPKCPAPELLGGPSVFIFPPNPKDTLMITRTPEVTCVVVDVSQENPDVKFNWYMDGVEVRTATTRPKEEQFNSTYRVVSVLRIQHQDWLSGKEFKCKVNNQALPQPIERTITKTKGRSQEPQVYVLAPHPDELSKSKVSVTCLVKDFYPPEINIEWQSNGQPELETKYSTTQAQQDSDGSYFLYSKLSVDRNRWQQGTTFTCGVMHEALHNHYTQKNVSKNPGK | 22.5 nM |
| equine IgG1 N434P (antibody, part only; not given: variable domains, not shown: another chain or arm of the molecule) constant: ASTTAPKVFALAPGCGTTSDSTVALGCLVSGYFPEPVKVSWNSGSLTSGVHTFPSVLQSSGFYSLSSMVTVPASTWTSETYICNVVHAASNFKVDKRIEPIPDNHQKVCDMSKCPKCPAPELLGGPSVFIFPPNPKDTLMITRTPEVTCVVVDVSQENPDVKFNWYMDGVEVRTATTRPKEEQFNSTYRVVSVLRIQHQDWLSGKEFKCKVNNQALPQPIERTITKTKGRSQEPQVYVLAPHPDELSKSKVSVTCLVKDFYPPEINIEWQSNGQPELETKYSTTQAQQDSDGSYFLYSKLSVDRNRWQQGTTFTCGVMHEALHPHYTQKNVSKNPGK | 25 nM |
| equine IgG1 N434M (antibody, part only; not given: Variable domains, not shown: another chain or arm of the molecule) constant: ASTTAPKVFALAPGCGTTSDSTVALGCLVSGYFPEPVKVSWNSGSLTSGVHTFPSVLQSSGFYSLSSMVTVPASTWTSETYICNVVHAASNFKVDKRIEPIPDNHQKVCDMSKCPKCPAPELLGGPSVFIFPPNPKDTLMITRTPEVTCVVVDVSQENPDVKFNWYMDGVEVRTATTRPKEEQFNSTYRVVSVLRIQHQDWLSGKEFKCKVNNQALPQPIERTITKTKGRSQEPQVYVLAPHPDELSKSKVSVTCLVKDFYPPEINIEWQSNGQPELETKYSTTQAQQDSDGSYFLYSKLSVDRNRWQQGTTFTCGVMHEALHMHYTQKNVSKNPGK | 29 nM |
| equine IgG1 N434Q (antibody, part only; not given: variable domains, not shown: another chain or arm of the molecule) constant: ASTTAPKVFALAPGCGTTSDSTVALGCLVSGYFPEPVKVSWNSGSLTSGVHTFPSVLQSSGFYSLSSMVTVPASTWTSETYICNVVHAASNFKVDKRIEPIPDNHQKVCDMSKCPKCPAPELLGGPSVFIFPPNPKDTLMITRTPEVTCVVVDVSQENPDVKFNWYMDGVEVRTATTRPKEEQFNSTYRVVSVLRIQHQDWLSGKEFKCKVNNQALPQPIERTITKTKGRSQEPQVYVLAPHPDELSKSKVSVTCLVKDFYPPEINIEWQSNGQPELETKYSTTQAQQDSDGSYFLYSKLSVDRNRWQQGTTFTCGVMHEALHQHYTQKNVSKNPGK | 12.8 nM |
| equine IgG1 N434T (antibody, part only; not given: variable domains, not shown: another chain or arm of the molecule) constant: ASTTAPKVFALAPGCGTTSDSTVALGCLVSGYFPEPVKVSWNSGSLTSGVHTFPSVLQSSGFYSLSSMVTVPASTWTSETYICNVVHAASNFKVDKRIEPIPDNHQKVCDMSKCPKCPAPELLGGPSVFIFPPNPKDTLMITRTPEVTCVVVDVSQENPDVKFNWYMDGVEVRTATTRPKEEQFNSTYRVVSVLRIQHQDWLSGKEFKCKVNNQALPQPIERTITKTKGRSQEPQVYVLAPHPDELSKSKVSVTCLVKDFYPPEINIEWQSNGQPELETKYSTTQAQQDSDGSYFLYSKLSVDRNRWQQGTTFTCGVMHEALHTHYTQKNVSKNPGK | 19.6 nM |
| equine IgG1 Y436A (antibody, part only; not given: variable domains, not shown: another chain or arm of the molecule) constant: ASTTAPKVFALAPGCGTTSDSTVALGCLVSGYFPEPVKVSWNSGSLTSGVHTFPSVLQSSGFYSLSSMVTVPASTWTSETYICNVVHAASNFKVDKRIEPIPDNHQKVCDMSKCPKCPAPELLGGPSVFIFPPNPKDTLMITRTPEVTCVVVDVSQENPDVKFNWYMDGVEVRTATTRPKEEQFNSTYRVVSVLRIQHQDWLSGKEFKCKVNNQALPQPIERTITKTKGRSQEPQVYVLAPHPDELSKSKVSVTCLVKDFYPPEINIEWQSNGQPELETKYSTTQAQQDSDGSYFLYSKLSVDRNRWQQGTTFTCGVMHEALHNHATQKNVSKNPGK | 20.4 nM |
| equine IgG1 N434S (antibody, part only; not given: variable domains, not shown: another chain or arm of the molecule) constant: ASTTAPKVFALAPGCGTTSDSTVALGCLVSGYFPEPVKVSWNSGSLTSGVHTFPSVLQSSGFYSLSSMVTVPASTWTSETYICNVVHAASNFKVDKRIEPIPDNHQKVCDMSKCPKCPAPELLGGPSVFIFPPNPKDTLMITRTPEVTCVVVDVSQENPDVKFNWYMDGVEVRTATTRPKEEQFNSTYRVVSVLRIQHQDWLSGKEFKCKVNNQALPQPIERTITKTKGRSQEPQVYVLAPHPDELSKSKVSVTCLVKDFYPPEINIEWQSNGQPELETKYSTTQAQQDSDGSYFLYSKLSVDRNRWQQGTTFTCGVMHEALHSHYTQKNVSKNPGK | 10 nM |
| equine IgG1 T286D (antibody, part only; not given: variable domains, not shown: another chain or arm of the molecule) constant: ASTTAPKVFALAPGCGTTSDSTVALGCLVSGYFPEPVKVSWNSGSLTSGVHTFPSVLQSSGFYSLSSMVTVPASTWTSETYICNVVHAASNFKVDKRIEPIPDNHQKVCDMSKCPKCPAPELLGGPSVFIFPPNPKDTLMITRTPEVTCVVVDVSQENPDVKFNWYMDGVEVRDATTRPKEEQFNSTYRVVSVLRIQHQDWLSGKEFKCKVNNQALPQPIERTITKTKGRSQEPQVYVLAPHPDELSKSKVSVTCLVKDFYPPEINIEWQSNGQPELETKYSTTQAQQDSDGSYFLYSKLSVDRNRWQQGTTFTCGVMHEALHNHYTQKNVSKNPGK | 23.9 nM |
| equine IgG1 N434K (antibody, part only; not given: variable domains, not shown: another chain or arm of the molecule) constant: ASTTAPKVFALAPGCGTTSDSTVALGCLVSGYFPEPVKVSWNSGSLTSGVHTFPSVLQSSGFYSLSSMVTVPASTWTSETYICNVVHAASNFKVDKRIEPIPDNHQKVCDMSKCPKCPAPELLGGPSVFIFPPNPKDTLMITRTPEVTCVVVDVSQENPDVKFNWYMDGVEVRTATTRPKEEQFNSTYRVVSVLRIQHQDWLSGKEFKCKVNNQALPQPIERTITKTKGRSQEPQVYVLAPHPDELSKSKVSVTCLVKDFYPPEINIEWQSNGQPELETKYSTTQAQQDSDGSYFLYSKLSVDRNRWQQGTTFTCGVMHEALHKHYTQKNVSKNPGK | 17.5 nM |
| equine IgG1 N434V (antibody, part only; not given: variable domains, not shown: another chain or arm of the molecule) constant: ASTTAPKVFALAPGCGTTSDSTVALGCLVSGYFPEPVKVSWNSGSLTSGVHTFPSVLQSSGFYSLSSMVTVPASTWTSETYICNVVHAASNFKVDKRIEPIPDNHQKVCDMSKCPKCPAPELLGGPSVFIFPPNPKDTLMITRTPEVTCVVVDVSQENPDVKFNWYMDGVEVRTATTRPKEEQFNSTYRVVSVLRIQHQDWLSGKEFKCKVNNQALPQPIERTITKTKGRSQEPQVYVLAPHPDELSKSKVSVTCLVKDFYPPEINIEWQSNGQPELETKYSTTQAQQDSDGSYFLYSKLSVDRNRWQQGTTFTCGVMHEALHVHYTQKNVSKNPGK | 31.2 nM |
| equine IgG1 N434I (antibody, part only; not given: variable domains, not shown: another chain or arm of the molecule) constant: ASTTAPKVFALAPGCGTTSDSTVALGCLVSGYFPEPVKVSWNSGSLTSGVHTFPSVLQSSGFYSLSSMVTVPASTWTSETYICNVVHAASNFKVDKRIEPIPDNHQKVCDMSKCPKCPAPELLGGPSVFIFPPNPKDTLMITRTPEVTCVVVDVSQENPDVKFNWYMDGVEVRTATTRPKEEQFNSTYRVVSVLRIQHQDWLSGKEFKCKVNNQALPQPIERTITKTKGRSQEPQVYVLAPHPDELSKSKVSVTCLVKDFYPPEINIEWQSNGQPELETKYSTTQAQQDSDGSYFLYSKLSVDRNRWQQGTTFTCGVMHEALHIHYTQKNVSKNPGK | 44.3 nM |
| equine IgG1 T286E (antibody, part only; not given: variable domains, not shown: another chain or arm of the molecule) constant: ASTTAPKVFALAPGCGTTSDSTVALGCLVSGYFPEPVKVSWNSGSLTSGVHTFPSVLQSSGFYSLSSMVTVPASTWTSETYICNVVHAASNFKVDKRIEPIPDNHQKVCDMSKCPKCPAPELLGGPSVFIFPPNPKDTLMITRTPEVTCVVVDVSQENPDVKFNWYMDGVEVREATTRPKEEQFNSTYRVVSVLRIQHQDWLSGKEFKCKVNNQALPQPIERTITKTKGRSQEPQVYVLAPHPDELSKSKVSVTCLVKDFYPPEINIEWQSNGQPELETKYSTTQAQQDSDGSYFLYSKLSVDRNRWQQGTTFTCGVMHEALHNHYTQKNVSKNPGK | 21.9 nM |
| equine IgG1 N434R (antibody, part only; not given: variable domains, not shown: another chain or arm of the molecule) constant: ASTTAPKVFALAPGCGTTSDSTVALGCLVSGYFPEPVKVSWNSGSLTSGVHTFPSVLQSSGFYSLSSMVTVPASTWTSETYICNVVHAASNFKVDKRIEPIPDNHQKVCDMSKCPKCPAPELLGGPSVFIFPPNPKDTLMITRTPEVTCVVVDVSQENPDVKFNWYMDGVEVRTATTRPKEEQFNSTYRVVSVLRIQHQDWLSGKEFKCKVNNQALPQPIERTITKTKGRSQEPQVYVLAPHPDELSKSKVSVTCLVKDFYPPEINIEWQSNGQPELETKYSTTQAQQDSDGSYFLYSKLSVDRNRWQQGTTFTCGVMHEALHRHYTQKNVSKNPGK | 14 nM |
| equine IgG1 N434G (antibody, part only; not given: variable domains, not shown: another chain or arm of the molecule) constant: ASTTAPKVFALAPGCGTTSDSTVALGCLVSGYFPEPVKVSWNSGSLTSGVHTFPSVLQSSGFYSLSSMVTVPASTWTSETYICNVVHAASNFKVDKRIEPIPDNHQKVCDMSKCPKCPAPELLGGPSVFIFPPNPKDTLMITRTPEVTCVVVDVSQENPDVKFNWYMDGVEVRTATTRPKEEQFNSTYRVVSVLRIQHQDWLSGKEFKCKVNNQALPQPIERTITKTKGRSQEPQVYVLAPHPDELSKSKVSVTCLVKDFYPPEINIEWQSNGQPELETKYSTTQAQQDSDGSYFLYSKLSVDRNRWQQGTTFTCGVMHEALHGHYTQKNVSKNPGK | 5.57 nM |
| equine IgG1 N434H (antibody, part only; not given: Variable domains, not shown: another chain or arm of the molecule) constant: ASTTAPKVFALAPGCGTTSDSTVALGCLVSGYFPEPVKVSWNSGSLTSGVHTFPSVLQSSGFYSLSSMVTVPASTWTSETYICNVVHAASNFKVDKRIEPIPDNHQKVCDMSKCPKCPAPELLGGPSVFIFPPNPKDTLMITRTPEVTCVVVDVSQENPDVKFNWYMDGVEVRTATTRPKEEQFNSTYRVVSVLRIQHQDWLSGKEFKCKVNNQALPQPIERTITKTKGRSQEPQVYVLAPHPDELSKSKVSVTCLVKDFYPPEINIEWQSNGQPELETKYSTTQAQQDSDGSYFLYSKLSVDRNRWQQGTTFTCGVMHEALHHHYTQKNVSKNPGK | 4.1 nM |
| equine IgG1 N434Y (antibody, part only; not given: Variable domains, not shown: another chain or arm of the molecule) constant: ASTTAPKVFALAPGCGTTSDSTVALGCLVSGYFPEPVKVSWNSGSLTSGVHTFPSVLQSSGFYSLSSMVTVPASTWTSETYICNVVHAASNFKVDKRIEPIPDNHQKVCDMSKCPKCPAPELLGGPSVFIFPPNPKDTLMITRTPEVTCVVVDVSQENPDVKFNWYMDGVEVRTATTRPKEEQFNSTYRVVSVLRIQHQDWLSGKEFKCKVNNQALPQPIERTITKTKGRSQEPQVYVLAPHPDELSKSKVSVTCLVKDFYPPEINIEWQSNGQPELETKYSTTQAQQDSDGSYFLYSKLSVDRNRWQQGTTFTCGVMHEALHYHYTQKNVSKNPGK | 2.15 nM |
